Test results: patent publication US20100168025A1 (TEXAS A AND M UNIVERSITY SYSTEM, published 2010)

What was measured:
[1] = molecular target: A5 domain (immobilized acceptor on the IAsys biosensor) (UniProt P08648); test: optical biosensor (IAsys), A5 immobilized, Kd = koff/kon
[2] = molecular target: T1, recombinant α5β1 integrin (immobilized, ELISA) (UniProt P08648 42-995; P05556 21-728); test: ELISA, DV on immobilized recombinant α5β1 integrin
T1 construct: also called a5b1 integrin

[3] = molecular target: A5 domain (immobilized acceptor on the IAsys biosensor) (UniProt P08648); test: optical biosensor (IAsys), A5 immobilized, free DV 8.0×10^-8 to 4.0×10^-7 M, global fit

T1 sequence (P08648 42-995, chain 1 of 2): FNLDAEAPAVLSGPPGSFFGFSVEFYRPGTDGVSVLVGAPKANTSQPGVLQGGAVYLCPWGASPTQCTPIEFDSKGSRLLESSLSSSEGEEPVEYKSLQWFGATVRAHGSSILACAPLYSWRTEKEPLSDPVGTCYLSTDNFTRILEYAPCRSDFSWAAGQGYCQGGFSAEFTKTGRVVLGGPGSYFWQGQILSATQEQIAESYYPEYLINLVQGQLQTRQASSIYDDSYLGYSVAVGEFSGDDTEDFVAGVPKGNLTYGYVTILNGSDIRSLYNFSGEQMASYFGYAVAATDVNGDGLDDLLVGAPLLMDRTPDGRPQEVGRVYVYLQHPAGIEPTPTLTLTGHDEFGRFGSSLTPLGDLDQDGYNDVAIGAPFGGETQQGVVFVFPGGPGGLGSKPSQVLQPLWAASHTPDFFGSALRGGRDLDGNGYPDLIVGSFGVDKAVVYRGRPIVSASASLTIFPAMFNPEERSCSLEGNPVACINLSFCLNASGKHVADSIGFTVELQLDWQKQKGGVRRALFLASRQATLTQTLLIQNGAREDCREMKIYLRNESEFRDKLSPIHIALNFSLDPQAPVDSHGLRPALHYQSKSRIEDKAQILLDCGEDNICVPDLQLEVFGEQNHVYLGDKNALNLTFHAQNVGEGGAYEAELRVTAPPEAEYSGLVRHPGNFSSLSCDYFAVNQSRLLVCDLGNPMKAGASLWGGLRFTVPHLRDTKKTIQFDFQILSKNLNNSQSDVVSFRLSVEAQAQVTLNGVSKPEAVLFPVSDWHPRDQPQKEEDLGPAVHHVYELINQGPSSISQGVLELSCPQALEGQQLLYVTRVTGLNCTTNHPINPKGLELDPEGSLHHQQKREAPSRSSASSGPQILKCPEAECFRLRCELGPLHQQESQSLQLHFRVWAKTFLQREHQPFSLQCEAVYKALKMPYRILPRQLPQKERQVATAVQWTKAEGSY
T1 sequence (P05556 21-728, chain 2 of 2): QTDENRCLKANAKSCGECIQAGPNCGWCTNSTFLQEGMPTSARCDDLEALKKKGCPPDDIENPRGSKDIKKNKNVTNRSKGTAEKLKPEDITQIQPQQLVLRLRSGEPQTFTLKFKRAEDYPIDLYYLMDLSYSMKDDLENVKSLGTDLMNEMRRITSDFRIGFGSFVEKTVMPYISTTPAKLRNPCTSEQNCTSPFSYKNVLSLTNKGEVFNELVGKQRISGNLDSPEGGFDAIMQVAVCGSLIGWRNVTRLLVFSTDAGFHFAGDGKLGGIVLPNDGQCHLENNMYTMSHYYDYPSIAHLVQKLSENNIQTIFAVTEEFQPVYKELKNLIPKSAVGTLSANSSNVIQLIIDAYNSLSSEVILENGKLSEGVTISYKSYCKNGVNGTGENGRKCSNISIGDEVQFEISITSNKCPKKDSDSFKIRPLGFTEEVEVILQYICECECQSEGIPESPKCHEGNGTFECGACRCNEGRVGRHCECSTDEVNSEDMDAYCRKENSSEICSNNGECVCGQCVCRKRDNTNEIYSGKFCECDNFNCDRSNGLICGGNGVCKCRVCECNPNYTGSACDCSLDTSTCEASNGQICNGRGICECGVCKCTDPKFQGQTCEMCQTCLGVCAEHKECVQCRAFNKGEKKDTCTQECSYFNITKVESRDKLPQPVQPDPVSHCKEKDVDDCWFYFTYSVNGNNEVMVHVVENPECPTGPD

Kd [1]: 160 nM
Kd [2]: ~30 nM
koff [3]: 0.72 s⁻¹
kon [3]: 3.8e+06 M⁻¹ s⁻¹
B1: perlecan Domain V (recombinant, C-terminal 6×His tag) (ligand)
chain: EIKITFRPDSADGMLLYNGQKRVPGSPTNLANRQPDFISFGLVGGRPEFRFDAGSGMATIRHPTPLALGHFHTVTLLRSLTQGSLIVGDLAPVNGTSQGKFQGLDLNEELYLGGYPDYGAIPKAGLSSGFIGCVRELRIQGEEIVFHDLNLTAHGISHCPTCRDRPCQNGGQCHDSESSSYVCVCPAGFTGSRCEHSQALHCHPEACGPDATCVNRPDGRGYTCRCHLGRSGLRCEEGVTVTTPSLSGAGSYLALPALTNTHHELRLDVEFKPLAPDGVLLFSGGKSGPVEDFVSLAMVGGHLEFRYELGSGLAVLRSAEPLALGRWHRVSAERLNKDGSLRVNGGRPVLRSSPGKSQGLNLHTLLYLGGVEPSVPLSPATNMSAHFRGCVGEVSVNGKRLDLTYSFLGSQGIGQCYDSSPCERQPCQHGATCMPAGEYEFQCLCRDGFKGDLCEHEENPCQLREPCLHGGTCQGTRCLCLPGFSGPRCQQGSGHGIAESDWHLEGSGGNDAPGQYGAYFHDDGFLAFPGHVFSRSLPEVPETIELEVRTSTASGLLLWQGVEVGEAGQGKDFISLGLQDGHLVFRYQLGSGEARLVSEDPINDGEWHRVTALREGRRGSIQVDGEELVSGRSPGPNVAVNAKGSVYIGGAPDVATLTGGRFSSGITGCVKNLVLHSARPGAPPPQPLDLQHRAQAGANTRPCPSHHHHHH
notes: domain: domain V; Secreted from transfected 293FT cells and purified on Ni beads; also called DV; endorepellin
